The values below come from patent US20230381229A1 (ALPINE IMMUNE SCIENCES, INC., published 2023).

The assay concerns the target T1, TIGIT (human).
T1 chain: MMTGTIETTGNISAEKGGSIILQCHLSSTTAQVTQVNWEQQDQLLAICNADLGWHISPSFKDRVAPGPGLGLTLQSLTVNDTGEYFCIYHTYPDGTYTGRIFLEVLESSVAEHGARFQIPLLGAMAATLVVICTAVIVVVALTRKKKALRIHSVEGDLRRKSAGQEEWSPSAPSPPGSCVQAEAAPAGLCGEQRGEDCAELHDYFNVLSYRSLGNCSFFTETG
Briefly: cell-based or functional assay.

Substitutions are numbered along the chain they refer to. Names and notes keep the numbering of the source.

B1: variant CD155 IgV-Fc P18S, Q32R, Q62K, R78G, L79P, F91S, T107A, R113W (Fc fusion)
chain: WPPPGTGDVVVQAPTQVSGFLGDSVTLPCYLRVPNMEVTHVSQLTWARHGESGSMAVFHQTKGPSYSESKRLEFVAAGPGAELRNASLRMSGLRVEDEGNYTCLFVAFPQGSWSVDIWLRVLGSGGGGSEPKSSDKTHTCPPCPAPEAEGAPSVFLFPPKPKDTLMISRTPEVTCVVVDVSHEDPEVKFNWYVDGVEVHNAKTKPREEQYNSTYRVVSVLTVLHQDWLNGKEYKCKVSNKALPAPIEKTISKAKGQPREPQVYTLPPSRDELTKNQVSLTCLVKGFYPSDIAVEWESNGQPENNYKTTPPVLDSDGSFFLYSKLTVDKSRWQQGNVFSCSVMHEALHNHYTQKSLSLSPGK
As to B1, the “IL-2 luciferase reporter, Normalized Fold Change from CD155-ECD” value was -2.2 fold.

B2: variant CD155 IgV-Fc P18S, Q62K, K70E, L79P, F91S, G92E, R113W (Fc fusion)
chain: B1 chain with R32Q, K70E, G78R, G92E, A107T
As for B2, the “IL-2 luciferase reporter, Normalized Fold Change from CD155-ECD” value is 2 fold.

B3: variant CD155 IgV-Fc T15I, P18S, V33M, N35F, T39S, M55L, R78S, L79P, F91S, T107M (Fc fusion)
chain: B1 chain with T15I, R32Q, V33M, N35F, T39S, M55L, K62Q, G78S, A107M, W113R
As for B3, the “IL-2 luciferase reporter, Normalized Fold Change from CD155-ECD” value is 1.3 fold.

B4: variant CD155 IgV-Fc V9I, P18S, S24P, H49Q, F58Y, Q60R, Q62K, L79P, F91S, T107M (Fc fusion)
chain: B1 chain with V9I, S24P, R32Q, H49Q, F58Y, Q60R, G78R, A107M, W113R
Consider B4, for which the “IL-2 luciferase reporter, Normalized Fold Change from CD155-ECD” value was found to be 1.1 fold.

B5: variant CD155 IgV-Fc P18T, G19D, M36T, S54N, L79P, L83Q, F91S, T107M, F108Y (Fc fusion)
chain: WPPPGTGDVVVQAPTQVTDFLGDSVTLPCYLQVPNTEVTHVSQLTWARHGESGNMAVFHQTQGPSYSESKRLEFVAARPGAEQRNASLRMSGLRVEDEGNYTCLFVMYPQGSRSVDIWLRVLGSGGGGSEPKSSDKTHTCPPCPAPEAEGAPSVFLFPPKPKDTLMISRTPEVTCVVVDVSHEDPEVKFNWYVDGVEVHNAKTKPREEQYNSTYRVVSVLTVLHQDWLNGKEYKCKVSNKALPAPIEKTISKAKGQPREPQVYTLPPSRDELTKNQVSLTCLVKGFYPSDIAVEWESNGQPENNYKTTPPVLDSDGSFFLYSKLTVDKSRWQQGNVFSCSVMHEALHNHYTQKSLSLSPGK
Consider B5, for which the “IL-2 luciferase reporter, Normalized Fold Change from CD155-ECD” value is 0.3 fold.

B6: variant CD155 IgV-Fc Q12H, P18T, L21S, G22S, V57A, Q62R, L79P, F91S, T107M (Fc fusion)
chain: B1 chain with Q12H, S18T, L21S, G22S, R32Q, V57A, K62R, G78R, A107M, W113R
As for B6, the “IL-2 luciferase reporter, Normalized Fold Change from CD155-ECD” value is -4.1 fold.

B7: variant CD155 IgV-Fc P18T, D23G, Q60R, S67L, L79P, F91S, T107M, V115A (Fc fusion)
chain: B5 chain with D19G, D23G, T36M, N54S, Q60R, S67L, Q83L, Y108F, V115A
Turning to B7, the “IL-2 luciferase reporter, Normalized Fold Change from CD155-ECD” value was found to be 8.6 fold.

B8: variant CD155 IgV-Fc P18S, H59N, V75A, L79P, A81T, F91S, L104M, T107M (Fc fusion)
chain: B1 chain with R32Q, H59N, K62Q, V75A, G78R, A81T, L104M, A107M, W113R
Regarding B8, the “IL-2 luciferase reporter, Normalized Fold Change from CD155-ECD” value was 3.5 fold.

B9: variant CD155 IgV-Fc V9L, P18L, M55V, S69L, L79P, A81E, F91S, T107M (Fc fusion)
chain: B1 chain with V9L, S18L, R32Q, M55V, K62Q, S69L, G78R, A81E, A107M, W113R
Turning to B9, the “IL-2 luciferase reporter, Normalized Fold Change from CD155-ECD” value is 3.1 fold.

B10: variant CD155 IgV-Fc P18S, W46R, E68D, L79P, F91S, T107M, R113G (Fc fusion)
chain: B1 chain with R32Q, W46R, K62Q, E68D, G78R, A107M, W113G
With B10, the “IL-2 luciferase reporter, Normalized Fold Change from CD155-ECD” value stood at 0.9 fold.

B11: variant CD155 IgV-Fc P18T, T39S, S52P, S54R, L79P, F91S, T107M (Fc fusion)
chain: B5 chain with D19G, T36M, T39S, S52P, N54R, Q83L, Y108F
Regarding B11, the “IL-2 luciferase reporter, Normalized Fold Change from CD155-ECD” value was -0.1 fold.

B12: variant CD155 IgV-Fc V9I, P18F, A47E, G50S, E68G, L79P, F91S, T107M (Fc fusion)
chain: B1 chain with V9I, S18F, R32Q, A47E, G50S, K62Q, E68G, G78R, A107M, W113R
Turning to B12, the “IL-2 luciferase reporter, Normalized Fold Change from CD155-ECD” value came out at 3 fold.

B13: variant CD155 IgV-Fc P18T, M55L, T61R, L79P, F91S, V106I, T107M (Fc fusion)
chain: B5 chain with D19G, T36M, N54S, M55L, T61R, Q83L, V106I, Y108F
In the case of B13, the “IL-2 luciferase reporter, Normalized Fold Change from CD155-ECD” value was found to be 4.5 fold.

B14: variant CD155 IgV-Fc V10F, T15S, P18L, R48Q, L79P, F91S, T107M, V115M (Fc fusion)
chain: B1 chain with V10F, T15S, S18L, R32Q, R48Q, K62Q, G78R, A107M, W113R, V115M
For B14, the “IL-2 luciferase reporter, Normalized Fold Change from CD155-ECD” value is -3.4 fold.

B15: variant CD155 IgV-Fc P18S, P34S, E51V, L79P, F91S, G111R (Fc fusion)
chain: B1 chain with R32Q, P34S, E51V, K62Q, G78R, A107T, G111R, W113R
For the molecule B15, the “IL-2 luciferase reporter, Normalized Fold Change from CD155-ECD” value worked out at 2.1 fold.

B16: variant CD155 IgV-Fc V9L, P18F, T45A, S65A, S67V, R78K, L79V, F91S, T107M, S114T (Fc fusion)
chain: WPPPGTGDLVVQAPTQVFGFLGDSVTLPCYLQVPNMEVTHVSQLAWARHGESGSMAVFHQTQGPAYVESKRLEFVAAKVGAELRNASLRMSGLRVEDEGNYTCLFVMFPQGSRTVDIWLRVLGSGGGGSEPKSSDKTHTCPPCPAPEAEGAPSVFLFPPKPKDTLMISRTPEVTCVVVDVSHEDPEVKFNWYVDGVEVHNAKTKPREEQYNSTYRVVSVLTVLHQDWLNGKEYKCKVSNKALPAPIEKTISKAKGQPREPQVYTLPPSRDELTKNQVSLTCLVKGFYPSDIAVEWESNGQPENNYKTTPPVLDSDGSFFLYSKLTVDKSRWQQGNVFSCSVMHEALHNHYTQKSLSLSPGK
Take B16: the “IL-2 luciferase reporter, Normalized Fold Change from CD155-ECD” value is 6 fold.

B17: variant CD155 IgV-Fc P18F, E51V, S54G, Q60R, L79Q, E82G, S87T, M90I, F91S, G92R, T107M (Fc fusion)
chain: WPPPGTGDVVVQAPTQVFGFLGDSVTLPCYLQVPNMEVTHVSQLTWARHGVSGGMAVFHRTQGPSYSESKRLEFVAARQGAGLRNATLRISRLRVEDEGNYTCLFVMFPQGSRSVDIWLRVLGSGGGGSEPKSSDKTHTCPPCPAPEAEGAPSVFLFPPKPKDTLMISRTPEVTCVVVDVSHEDPEVKFNWYVDGVEVHNAKTKPREEQYNSTYRVVSVLTVLHQDWLNGKEYKCKVSNKALPAPIEKTISKAKGQPREPQVYTLPPSRDELTKNQVSLTCLVKGFYPSDIAVEWESNGQPENNYKTTPPVLDSDGSFFLYSKLTVDKSRWQQGNVFSCSVMHEALHNHYTQKSLSLSPGK
Turning to B17, the “IL-2 luciferase reporter, Normalized Fold Change from CD155-ECD” value was 5.8 fold.

B18: variant CD155 IgV-Fc P18S, L21M, Y30F, N35D, R84W, F91S, T107M, D116G (Fc fusion)
chain: WPPPGTGDVVVQAPTQVSGFMGDSVTLPCFLQVPDMEVTHVSQLTWARHGESGSMAVFHQTQGPSYSESKRLEFVAARLGAELWNASLRMSGLRVEDEGNYTCLFVMFPQGSRSVGIWLRVLGSGGGGSEPKSSDKTHTCPPCPAPEAEGAPSVFLFPPKPKDTLMISRTPEVTCVVVDVSHEDPEVKFNWYVDGVEVHNAKTKPREEQYNSTYRVVSVLTVLHQDWLNGKEYKCKVSNKALPAPIEKTISKAKGQPREPQVYTLPPSRDELTKNQVSLTCLVKGFYPSDIAVEWESNGQPENNYKTTPPVLDSDGSFFLYSKLTVDKSRWQQGNVFSCSVMHEALHNHYTQKSLSLSPGK
As to B18, the “IL-2 luciferase reporter, Normalized Fold Change from CD155-ECD” value is -2.2 fold.

B19: variant CD155 IgV-Fc D8G, V9I, V11A, P18T, T26M, S52P, L79P, F91S, G92A, T107L, V115A (Fc fusion)
chain: WPPPGTGGIVAQAPTQVTGFLGDSVMLPCYLQVPNMEVTHVSQLTWARHGEPGSMAVFHQTQGPSYSESKRLEFVAARPGAELRNASLRMSALRVEDEGNYTCLFVLFPQGSRSADIWLRVLGSGGGGSEPKSSDKTHTCPPCPAPEAEGAPSVFLFPPKPKDTLMISRTPEVTCVVVDVSHEDPEVKFNWYVDGVEVHNAKTKPREEQYNSTYRVVSVLTVLHQDWLNGKEYKCKVSNKALPAPIEKTISKAKGQPREPQVYTLPPSRDELTKNQVSLTCLVKGFYPSDIAVEWESNGQPENNYKTTPPVLDSDGSFFLYSKLTVDKSRWQQGNVFSCSVMHEALHNHYTQKSLSLSPGK
For the molecule B19, the “IL-2 luciferase reporter, Normalized Fold Change from CD155-ECD” value was 8.4 fold.

B20: variant CD155 IgV-Fc P18T, W46C, H49R, S65A, S67V, A76T, L79P, S87T, L104M (Fc fusion)
chain: WPPPGTGDVVVQAPTQVTGFLGDSVTLPCYLQVPNMEVTHVSQLTCARRGESGSMAVFHQTQGPAYVESKRLEFVTARPGAELRNATLRMFGLRVEDEGNYTCMFVTFPQGSRSVDIWLRVLGSGGGGSEPKSSDKTHTCPPCPAPEAEGAPSVFLFPPKPKDTLMISRTPEVTCVVVDVSHEDPEVKFNWYVDGVEVHNAKTKPREEQYNSTYRVVSVLTVLHQDWLNGKEYKCKVSNKALPAPIEKTISKAKGQPREPQVYTLPPSRDELTKNQVSLTCLVKGFYPSDIAVEWESNGQPENNYKTTPPVLDSDGSFFLYSKLTVDKSRWQQGNVFSCSVMHEALHNHYTQKSLSLSPGK
B20: the “IL-2 luciferase reporter, Normalized Fold Change from CD155-ECD” value was -3.4 fold.
